Common to all, as to format: cell-based, human
In one test the test system is MCF-7 cells. In words: Flow cytometric analysis of KR, SYTOX Green and DAPI. On the procedure:
MCF-7 cells were seeded at 5×10^5 cells/mL in a 96-well plate (SPL Cell Culture Plate, 96 well (SPL, Cat #30096)), and cultured at 37° C. for 24 hours (overnight). After the culture, the cells were washed with FBS & Phenol red-free media (RPMI), and 100 μL of FBS & Phenol red-free media (RPMI) containing a purified protein (final concentration: 10 μM), followed by reaction at 37° C. for 24 hours (overnight).
After washing with KillerRed: FBS & Phenol red-free media (RPMI), the cells were detached by treating 100 μL of Trypsin EDTA (Gibco™), and then centrifuged at 1,000 rpm for 3 minutes. The cells were filtered through a cell strainer (SPL, cat #93070) and resuspended in 400 μL of 1×DPBS containing 5% FBS.
The cells were washed with SYTOX Green: FBS & Phenol red-free media (RPMI), and 100 μL (final concentration: 150 μM) of FBS & Phenol red-free media (RPMI) containing a Co-h substrate solution was added, followed by incubation for 24 hours at 37° C. 50 μL of SYTOX Green (final concentration: 261 nM) staining DNA of dead cells was added without washing the cells, followed by reaction at 37° C. for 30 minutes. Without washing, the cells were detached by treatment with 100 μL of trypsin EDTA (Gibco™), and centrifuged at 1,000 rpm for 3 minutes. The cells were filtered through a cell strainer (SPL, cat #93070) and resuspended in 400 μL of 1×DPBS containing 5% FBS.
The cells were washed with DAPI: FBS & Phenol red-free media (RPMI), and 100 μL (final concentration: 150 μM) of FBS & Phenol red-free media (RPMI) containing a Co-h substrate solution was added, followed by incubation for 24 hours at 37° C. The cells were washed with FBS & Phenol red-free media (RPMI), and then 100 μL of media (RPMI) was added thereto. 10 μL of DAPI staining DNA of live cells was added, followed by reaction at 37° C. for 30 minutes. The cells were detached by treatment with 100 μL of trypsin EDTA (Gibco™) without washing, followed by centrifugation at 1,000 rpm for 3 minutes. The cells were filtered through a cell strainer (SPL, cat #93070) and resuspended in 400 μL of 1×DPBS containing 5% FBS.
A general note: Flow cytometry measures light scatter and fluorescence of single cells or particles in a stream.

For a further test, the system named is BT-474. In words: Cell death with Co-h substrate by cell type (SYTOX Green or EthD-1/DAPI). The settings on record: BT-474, protein 10 μM, Co-h 150 μM for 5 minutes. On the procedure: (§1) The cells were seeded at 5×10^5 cells/mL in 96-well plates (SPL Cell Culture Plate, 96 well (SPL, Cat #30096)), and cultured at 37° C. for 24 hours (overnight). After the culture for 24 hours, the cells were washed with FBS & phenol red-free media, and 100 μL of FBS & phenol red-free media containing a purified protein (final concentration: 10 μM) was added, followed by reaction at 37° C. for 24 hours.
(§2) Subsequently, the cells were washed with FBS & phenol red-free media, and 100 μL of FBS & phenol red-free media was added. 100 μL of FBS & Phenol red-free media (RPMI) containing a Co-h substrate solution (final concentration: 150 μM) was added, followed by reaction at 37° C. for 5 minutes.
(§3) After the reaction, 50 μL of SYTOX Green (final concentration: 261 nM) or 90 μL of ethidium homodimer (EthD-1) (final concentration 1×), which stains DNA of dead cells, was added, followed by reaction at 37° C. for 30 minutes. 10 μL of DAPI staining DNA of live cells was added, followed by reaction for 5 minutes. Cell death was confirmed by observing KillerRed, SYTOX Green, MiniSOG, EthD-1 and DAPI fluorescence using a confocal microscope.

The subject of the next test is MCF-10A. The test is described as above. The settings on record: protein 10 μM, Co-h 150 μM for 5 minutes. On the procedure:
as §1, §2, §3

The test system of a further test is SK-BR-3. The test is described as above. Particulars: SK-BR-3, protein 10 μM, Co-h 150 μM for 5 minutes. As to the method:
as §1, §2, §3

For a further test, the system named is MDA-MB-435. In words: Cell death after light irradiation by cell type (SYTOX Green/DAPI). Particulars: MDA-MB-435, protein 10 μM, light 10 mW/cm^2 for 10 minutes. On the procedure: MDA-MB-435: (Origin: breast, mammary gland, Species: human—person, Media: DMEM with glucose (4.5 g/L), L-glutamine and sodium pyruvate, 90%; heat inactivated fetal bovine serum (FBS), 10%), purchased from ATCC (USA).
The cells were seeded at 5×10^5 cells/mL in 96-well plates (SPL Cell Culture Plate, 96 well (SPL, Cat #30096)), and cultured at 37° C. for 24 hours (overnight). After the culture for 24 hours, the cells were washed with FBS & phenol red-free media, and 100 μL of FBS & phenol red-free media containing a purified protein (final concentration: 10 μM) was added, followed by reaction at 37° C. for 24 hours. After the reaction for 24 hours, the cells were washed with FBS & phenol red-free media, and 100 μL of FBS & phenol red-free media was added.
After irradiation with light at 10 mW/cm^2 for 10 minutes, 50 μL (final concentration: 261 nM) of SYTOX Green staining DNA of dead cells was added, followed by reaction at 37° C. for 30 minutes. 10 μL of DAPI staining DNA of live cells was added, followed by reaction for 5 minutes. Cell death was confirmed by observing KillerRed, SYTOX Green and DAPI fluorescence using a confocal microscope.

The mark [1] stands for this setting: MCF-7, protein 10 μM, Co-h 150 μM 24 hours.

B1: RLuc8.6-KR: fusion protein of RLuc8.6 and KillerRed without lead peptide, 69 kDa (protein)
chain: MRGSHHHHHHGMASMTGGQQMGRDLYDDDDKDPMASKVYDPEQRKRMITGPQWWARCKQMNVLDSFINYYDSEKHAENAVIFLHGNATSSYLWRHVVPHIEPVARCIIPDLIGMGKSGKSGNGSYRLLDHYKYLTAWFELLNLPKKIIFVGHDWGSALAFHYAYEHQDRIKAIVHMESVVDVIESWMGWPDIEEELALIKSEEGEKMVLENNFFVETLLPSKIMRKLEPEEFAAYLEPFKEKGEVRRPTLSWPREIPLVKGGKPDVVQIVRNYNAYLRASDDLPKLFIESDPGFFYNAIVEGAKKFPNTEFVKVKGLHFLQEDAPDEMGKYIKSFVERVLKNEQEFGGGMLCCMRRTKQVEKNDEDQKISEGGPALFQSDMTFKIFIDGEVNGQKFTIVADGSSKFPHGDFNVHAVCETGKLPMSWKPICHLIQYGEPFFARYPDGISHFAQECFPEGLSIDRTVRFENDGTMTSHHTYELDDTCVVSRITVNCDGFQPDGPIMRDQLVDILPNETHMFPHGPNAVRQLAFIGFTTADGGLMMGHFDSKMTFNGSRAIEIPGPHFVTIITKQMRDTSDKRDHVCQREVAYAHSVPRITSAIGSDED
modifications: pRSET-RLuc8.6-KillerRed
With B1, the “number of cells stained with DAPI (FACS)” value in the test with MCF-7 cells (setting [1]) is given as “increases without a cytotoxic effect”. Moreover, the “cell death with Co-h substrate” value with BT-474, in the test on MCF-10A and with SK-BR-3 was “none of the six breast cancer cell lines were killed” each time.

B2: RLuc8.6-KR-LP: fusion protein of RLuc8.6, KillerRed and lead peptide WLEAAYQRFL, 71 kDa (protein)
chain: MRGSHHHHHHGMASMTGGQQMGRDLYDDDDKDPMASKVYDPEQRKRMITGPQWWARCKQMNVLDSFINYYDSEKHAENAVIFLHGNATSSYLWRHVVPHIEPVARCIIPDLIGMGKSGKSGNGSYRLLDHYKYLTAWFELLNLPKKIIFVGHDWGSALAFHYAYEHQDRIKAIVHMESVVDVIESWMGWPDIEEELALIKSEEGEKMVLENNFFVETLLPSKIMRKLEPEEFAAYLEPFKEKGEVRRPTLSWPREIPLVKGGKPDVVQIVRNYNAYLRASDDLPKLFIESDPGFFYNAIVEGAKKFPNTEFVKVKGLHFLQEDAPDEMGKYIKSFVERVLKNEQEFGGGMLCCMRRTKQVEKNDEDQKISEGGPALFQSDMTFKIFIDGEVNGQKFTIVADGSSKFPHGDFNVHAVCETGKLPMSWKPICHLIQYGEPFFARYPDGISHFAQECFPEGLSIDRTVRFENDGTMTSHHTYELDDTCVVSRITVNCDGFQPDGPIMRDQLVDILPNETHMFPHGPNAVRQLAFIGFTTADGGLMMGHFDSKMTFNGSRAIEIPGPHFVTIITKQMRDTSDKRDHVCQREVAYAHSVPRITSAIGSDEDGGGWLEAAYQRFL
modifications: pRSET-RLuc8.6-KillerRed-Lead peptide
On to B2, for which the “number of cells exhibiting fluorescence of KillerRed (FACS)” value in the test with MCF-7 cells (MCF-7, protein 10 μM 24 hours) is recorded as “increased”. In the test on MCF-7 cells (setting [1]), the “number of cells exhibiting SYTOX Green (FACS)” value is “increased” and the “number of cells stained with DAPI (FACS)” value is on record as “decreased”. In addition, the “cell death after light irradiation” value in the test on MDA-MB-435 was “killing the three types of cancer cell lines”.

These data come from patent US20220040304A1, “A COMPOSITION FOR CANCER CELL DEATH AND ITS USE” (Industry-University Cooperation Foundation Hanyang …, priority 2018, published 2022).
